Reference: PMC9482650, “Quantitative fragmentomics allow affinity mapping of interactomes” (Nature Communications, 2022)

T1: NHERF3_4, Q5T2W1
T1 sequence (Q5T2W1 373-468, limits assumed, looked up): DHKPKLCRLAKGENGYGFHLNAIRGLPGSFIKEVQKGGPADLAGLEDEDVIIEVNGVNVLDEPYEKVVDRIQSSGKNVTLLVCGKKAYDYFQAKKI

T2: SNTG2, Q9NY99
T2 sequence (Q9NY99 68-166, limits assumed, looked up): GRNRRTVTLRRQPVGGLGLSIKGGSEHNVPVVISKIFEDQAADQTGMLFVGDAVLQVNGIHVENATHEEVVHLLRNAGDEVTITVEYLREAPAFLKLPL

T3: LIN7B, Q9HAP6
T3 sequence (Q9HAP6 88-185, limits assumed, looked up): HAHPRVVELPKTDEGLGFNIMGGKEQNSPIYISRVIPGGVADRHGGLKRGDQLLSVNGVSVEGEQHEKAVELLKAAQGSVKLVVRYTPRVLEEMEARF

T4: LIN7C, Q9NUP9
T4 sequence (Q9NUP9 88-185, limits assumed, looked up): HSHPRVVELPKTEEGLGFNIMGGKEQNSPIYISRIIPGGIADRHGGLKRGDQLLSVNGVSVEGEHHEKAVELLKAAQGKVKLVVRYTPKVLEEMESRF

T5: HTRA4, P83105
T5 sequence (P83105 378-476, limits assumed, looked up): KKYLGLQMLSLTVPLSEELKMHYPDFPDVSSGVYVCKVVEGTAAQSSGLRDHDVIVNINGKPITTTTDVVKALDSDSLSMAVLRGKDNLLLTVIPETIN

T6: PDZD2_2, O15018
T6 sequence (O15018 329-429, limits assumed, looked up): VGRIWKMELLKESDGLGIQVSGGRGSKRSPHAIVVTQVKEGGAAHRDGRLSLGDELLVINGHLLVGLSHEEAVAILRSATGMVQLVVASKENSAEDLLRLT

T7: GRIP1_4, Q9Y3R0
T7 sequence (Q9Y3R0 467-571, limits assumed, looked up): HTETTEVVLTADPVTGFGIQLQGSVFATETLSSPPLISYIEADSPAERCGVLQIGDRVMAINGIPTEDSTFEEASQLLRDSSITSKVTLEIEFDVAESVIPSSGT

T8: SNTB1, Q13884
T8 sequence (Q13884 107-205, limits assumed, looked up): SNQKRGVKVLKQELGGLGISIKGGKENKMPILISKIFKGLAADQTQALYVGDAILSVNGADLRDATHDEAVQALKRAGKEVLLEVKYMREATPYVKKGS

T9: ARHGAP21, Q5T5U3
T9 sequence (Q5T5U3 45-169, limits assumed, looked up): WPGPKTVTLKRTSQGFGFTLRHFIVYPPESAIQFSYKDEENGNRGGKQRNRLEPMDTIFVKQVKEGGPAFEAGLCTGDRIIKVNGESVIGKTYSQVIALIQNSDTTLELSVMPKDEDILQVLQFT

T10: LNX2_3, Q8N448
T10 sequence (Q8N448 463-564, limits assumed, looked up): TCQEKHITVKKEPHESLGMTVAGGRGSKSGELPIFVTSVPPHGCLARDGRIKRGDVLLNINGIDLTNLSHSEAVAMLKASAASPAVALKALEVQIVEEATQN

T11: APBA2_2, Q99767
T11 sequence (Q99767 654-744, limits assumed, looked up): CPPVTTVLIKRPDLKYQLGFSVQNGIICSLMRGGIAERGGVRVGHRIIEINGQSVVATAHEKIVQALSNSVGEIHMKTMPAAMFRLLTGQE

T12: PDZRN3_1, Q9UPQ7
T12 sequence (Q9UPQ7 244-349, limits assumed, looked up): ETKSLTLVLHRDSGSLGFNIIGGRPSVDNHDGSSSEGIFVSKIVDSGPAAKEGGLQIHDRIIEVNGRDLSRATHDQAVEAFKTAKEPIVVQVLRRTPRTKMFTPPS


Key:
Assay in all cases: holdup assay
Parameters in all cases: key: below the threshold = too weak to quantify, mostly under pKd 3.1 to 4
Conditions in all cases: plain residues with an end cap or a label only (N-terminal biotin on a linker: ado-ado)
LAP2, Q96RT1 = target: LAP2, Q96RT1
Chain of LAP2, Q96RT1 (Q96RT1 other isoform, or with tags, fused parts or gaps): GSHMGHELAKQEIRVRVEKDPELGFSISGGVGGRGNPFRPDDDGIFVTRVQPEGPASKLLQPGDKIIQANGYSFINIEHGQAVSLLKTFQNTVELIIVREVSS

NHERF3_4, Q5T2W1 = target: T1, NHERF3_4, Q5T2W1
SNTG2, Q9NY99 = target: T2, SNTG2, Q9NY99
DLG4_3, P78352 = target: DLG4_3, P78352
Chain of DLG4_3, P78352 (P78352 306-403): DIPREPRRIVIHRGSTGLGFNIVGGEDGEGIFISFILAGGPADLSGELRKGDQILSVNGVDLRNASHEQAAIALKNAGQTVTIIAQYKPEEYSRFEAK

LIN7B, Q9HAP6 = target: T3, LIN7B, Q9HAP6
IL16_4, Q14005 = target: IL16_4, Q14005
Chain of IL16_4, Q14005 (Q14005 1229-1329): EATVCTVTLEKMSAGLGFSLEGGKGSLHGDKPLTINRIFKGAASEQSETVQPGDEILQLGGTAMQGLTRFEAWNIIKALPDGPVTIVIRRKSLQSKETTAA

Inadl_3, Q8NI35 = target: Inadl_3, Q8NI35
Chain of Inadl_3, Q8NI35 (Q8NI35 359-469): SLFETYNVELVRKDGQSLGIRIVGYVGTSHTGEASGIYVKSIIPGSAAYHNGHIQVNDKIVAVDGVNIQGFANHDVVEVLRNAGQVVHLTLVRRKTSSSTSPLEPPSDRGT

LIN7C, Q9NUP9 = target: T4, LIN7C, Q9NUP9
HTRA4, P83105 = target: T5, HTRA4, P83105
MAGI2_4, Q86UL8 = target: MAGI2_4, Q86UL8
Chain of MAGI2_4, Q86UL8 (Q86UL8 772-865): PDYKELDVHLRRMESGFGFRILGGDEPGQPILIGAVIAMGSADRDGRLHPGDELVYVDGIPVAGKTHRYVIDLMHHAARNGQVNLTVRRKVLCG

Inadl_6, Q8NI35 = target: Inadl_6, Q8NI35
Chain of Inadl_6, Q8NI35 (Q8NI35 1058-1167): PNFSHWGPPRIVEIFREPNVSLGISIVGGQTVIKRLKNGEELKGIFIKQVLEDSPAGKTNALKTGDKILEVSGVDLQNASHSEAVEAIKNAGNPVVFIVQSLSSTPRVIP

PDZD2_2, O15018 = target: T6, PDZD2_2, O15018
GRIP1_4, Q9Y3R0 = target: T7, GRIP1_4, Q9Y3R0
SCRIB_2, Q14160 = target: SCRIB_2, Q14160
Chain of SCRIB_2, Q14160 (Q14160 857-960): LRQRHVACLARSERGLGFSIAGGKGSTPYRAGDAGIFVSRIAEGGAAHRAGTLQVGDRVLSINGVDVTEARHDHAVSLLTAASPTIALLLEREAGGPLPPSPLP

DLG1_2, Q12959 = target: DLG1_2, Q12959
Chain of DLG1_2, Q12959 (Q12959 314-412): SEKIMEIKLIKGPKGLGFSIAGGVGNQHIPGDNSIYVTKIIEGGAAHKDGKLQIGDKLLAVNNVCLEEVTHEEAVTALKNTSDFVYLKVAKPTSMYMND

LNX1_2, Q8TBB1 = target: LNX1_2, Q8TBB1
Chain of LNX1_2, Q8TBB1 (Q8TBB1 371-470): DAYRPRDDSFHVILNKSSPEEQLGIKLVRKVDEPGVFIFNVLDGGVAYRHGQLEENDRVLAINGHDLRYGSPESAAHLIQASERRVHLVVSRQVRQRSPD

DLG1_3, Q12959 = target: DLG1_3, Q12959
Chain of DLG1_3, Q12959 (Q12959 457-571): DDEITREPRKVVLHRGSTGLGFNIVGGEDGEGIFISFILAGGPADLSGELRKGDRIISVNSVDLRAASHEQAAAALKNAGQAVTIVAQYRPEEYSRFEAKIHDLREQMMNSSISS

FRMPD2_1, Q68DX3 = target: FRMPD2_1, Q68DX3
Chain of FRMPD2_1, Q68DX3 (Q68DX3 770-861): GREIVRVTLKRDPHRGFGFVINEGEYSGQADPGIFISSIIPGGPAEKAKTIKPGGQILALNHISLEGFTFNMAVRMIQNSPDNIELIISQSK

SNTB1, Q13884 = target: T8, SNTB1, Q13884
ARHGAP21, Q5T5U3 = target: T9, ARHGAP21, Q5T5U3
LNX2_3, Q8N448 = target: T10, LNX2_3, Q8N448
LNX1_3, Q8TBB1 = target: LNX1_3, Q8TBB1
Chain of LNX1_3, Q8TBB1 (Q8TBB1 500-596): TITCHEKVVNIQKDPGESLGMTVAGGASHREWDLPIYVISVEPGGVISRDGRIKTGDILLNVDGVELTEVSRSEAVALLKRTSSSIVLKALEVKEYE

APBA2_2, Q99767 = target: T11, APBA2_2, Q99767
TJP1_3, Q07157 = target: TJP1_3, Q07157
Chain of TJP1_3, Q07157 (Q07157 416-512): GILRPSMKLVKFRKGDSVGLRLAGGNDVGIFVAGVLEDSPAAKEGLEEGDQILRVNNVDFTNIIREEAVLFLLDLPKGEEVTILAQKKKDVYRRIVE

PDZRN3_1, Q9UPQ7 = target: T12, PDZRN3_1, Q9UPQ7

Row | Binder | pKd (LAP2, Q96RT1) | pKd (NHERF3_4, Q5T2W1) | pKd (SNTG2, Q9NY99) | pKd (DLG4_3, P78352) | pKd (LIN7B, Q9HAP6) | pKd (IL16_4, Q14005) | pKd (Inadl_3, Q8NI35) | pKd (LIN7C, Q9NUP9) | pKd (HTRA4, P83105) | pKd (MAGI2_4, Q86UL8) | pKd (Inadl_6, Q8NI35) | pKd (PDZD2_2, O15018) | pKd (GRIP1_4, Q9Y3R0) | pKd (SCRIB_2, Q14160) | pKd (DLG1_2, Q12959) | pKd (LNX1_2, Q8TBB1) | pKd (DLG1_3, Q12959) | pKd (FRMPD2_1, Q68DX3) | pKd (SNTB1, Q13884) | pKd (ARHGAP21, Q5T5U3) | other results
1 | TSSMRGMDAV [RSRC2, Q7L4I2] | below the threshold | below the threshold | below the threshold | below the threshold | below the threshold | below the threshold | below the threshold | 3.97 | below the threshold | below the threshold | below the threshold | below the threshold | below the threshold | below the threshold | below the threshold | below the threshold | below the threshold | below the threshold | below the threshold | below the threshold | pKd (LNX2_3, Q8N448): below the threshold; pKd (LNX1_3, Q8TBB1): below the threshold; pKd (APBA2_2, Q99767): below the threshold; pKd (TJP1_3, Q07157): below the threshold; pKd (PDZRN3_1, Q9UPQ7): below the threshold
2 | TLPRKRMSSI [GPRC6A, Q5T6X5] | 3.86 | below the threshold | below the threshold | below the threshold | 3.75 | below the threshold | below the threshold | below the threshold | below the threshold | below the threshold | below the threshold | 4.22 | below the threshold | below the threshold | 3.76 | below the threshold | below the threshold | below the threshold | below the threshold | below the threshold | pKd (LNX2_3, Q8N448): below the threshold; pKd (LNX1_3, Q8TBB1): below the threshold; pKd (APBA2_2, Q99767): below the threshold; pKd (TJP1_3, Q07157): below the threshold; pKd (PDZRN3_1, Q9UPQ7): below the threshold
3 | TACCHSETVV [TGFA, P01135] | 4.05 | below the threshold | 4.38 | below the threshold | below the threshold | below the threshold | 4.81 | below the threshold | 3.59 | 4.4 | 3.55 | 4.32 | below the threshold | 4.1 | 4.89 | 3.9 | 3.97 | below the threshold | 4.95 | 4.08 | pKd (LNX2_3, Q8N448): below the threshold; pKd (LNX1_3, Q8TBB1): below the threshold; pKd (APBA2_2, Q99767): below the threshold; pKd (TJP1_3, Q07157): below the threshold; pKd (PDZRN3_1, Q9UPQ7): 3.78
4 | QSPANIYYKV [EFNB1, P52799] | below the threshold | below the threshold | below the threshold | below the threshold | below the threshold | below the threshold | below the threshold | below the threshold | below the threshold | below the threshold | below the threshold | below the threshold | below the threshold | below the threshold | below the threshold | 3.61 | below the threshold | below the threshold | below the threshold | below the threshold | pKd (LNX2_3, Q8N448): below the threshold; pKd (LNX1_3, Q8TBB1): 4.38; pKd (APBA2_2, Q99767): below the threshold; pKd (TJP1_3, Q07157): below the threshold; pKd (PDZRN3_1, Q9UPQ7): below the threshold
